Substrate in series [1]: C[N+](C)(C)CC=O
Description: purified protein. The settings on record: 0.2 mM NAD+, 50 mM HEPES-KOH pH 8.0, 0.1 mM EDTA, 30 °C, apparent.

Substrate in series [2]: NCCC=O
Description: spectrophotometric initial velocity, fit to substrate-inhibition equation. The format is biochemical, Spinacia oleracea. The conditions noted are these: 0.2 mM NAD+, 50 mM HEPES-KOH pH 8.0, 0.1 mM EDTA, 30 °C, apparent. The source says: spectrophotometric initial velocity, fit to substrate-inhibition equation on SoBADH

Substrate in series [3]: NC(=O)c1ccc[n+]([C@@H]2O[C@H](COP(=O)(O)OP(=O)(O)OC[C@H]3O[C@@H](n4cnc5c(N)ncnc54)[C@H](O)[C@@H]3O)[C@@H](O)[C@H]2O)c1
Description: spectrophotometric initial velocity, Michaelis-Menten fit. The conditions noted are these: fixed BAL at least 10x its Km, 50 mM HEPES-KOH pH 8.0, 0.1 mM EDTA, 30 °C, apparent, varied: cofactor. In kind it is biochemical, Spinacia oleracea. The source says: spectrophotometric initial velocity, Michaelis-Menten fit on SoBADH

B1: SoBADH (Spinacia oleracea; A441F) (protein)
chain: MAFPIPARQLFIDGEWREPIKKNRIPVINPSTEEIIGDIPAATAEDVEVAVVAARRAFRRNNWSATSGAHRATYLRAIAAKITEKKDHFVKLETIDSGKPFDEAVLDIDDVASCFEYFAGQAEALDGKQKAPVTLPMERFKSHVLRQPLGVVGLISPWNYPLLMATWKIAPALAAGCTAVLKPSELASVTCLEFGEVCNEVGLPPGVLNILTGLGPDAGAPLVSHPDVDKIAFTGSSATGSKVMASAAQLVKPVTLELGGKSPIVVFEDVDIDKVVEWTIFGCFWTNGQICSATSRLLVHESIAAEFVDKLVKWTKNIKISDPFEEGCRLGPVISKGQYDKIMKFISTAKSEGATILYGGSRPEHLKKGYYIEPTIVTDISTSMQIWKEEVFGPVLCVKTFSSEDEAIALANDTEYGLAAAVFSNDLERCERITKALEVGFVWVNCSQPCFVQAPWGGIKRSGFGRELGEWGIQNYLNIKQVTQDISDEPWGWYKSP
notes: native homodimer
By Km is commonly meant the concentration of substrate that gives half-maximal velocity. One may read the kcat as the number of substrate molecules converted per active site and unit of time at saturation. Usually kcat/Km stands for the second-order rate constant that governs catalysis at low substrate concentration. As to B1, in series [1], the Km amounted to 605 ± 26 µM, the kcat is 0.29 s⁻¹ and the kcat/Km is 480 M⁻¹ s⁻¹. In addition, in series [2], the Km was 3.7 ± 0.0 µM, the catalytic constant (kcat) was determined as 0.34 ± 0.04 s⁻¹ and the kcat/Km turned out to be 92000 ± 11000 M⁻¹ s⁻¹.

B2: SoBADH (Spinacia oleracea) (protein)
chain: MAFPIPARQLFIDGEWREPIKKNRIPVINPSTEEIIGDIPAATAEDVEVAVVAARRAFRRNNWSATSGAHRATYLRAIAAKITEKKDHFVKLETIDSGKPFDEAVLDIDDVASCFEYFAGQAEALDGKQKAPVTLPMERFKSHVLRQPLGVVGLISPWNYPLLMATWKIAPALAAGCTAVLKPSELASVTCLEFGEVCNEVGLPPGVLNILTGLGPDAGAPLVSHPDVDKIAFTGSSATGSKVMASAAQLVKPVTLELGGKSPIVVFEDVDIDKVVEWTIFGCFWTNGQICSATSRLLVHESIAAEFVDKLVKWTKNIKISDPFEEGCRLGPVISKGQYDKIMKFISTAKSEGATILYGGSRPEHLKKGYYIEPTIVTDISTSMQIWKEEVFGPVLCVKTFSSEDEAIALANDTEYGLAAAVFSNDLERCERITKALEVGAVWVNCSQPCFVQAPWGGIKRSGFGRELGEWGIQNYLNIKQVTQDISDEPWGWYKSP
notes: native homodimer
For the protein B2, in series [1], the Km came out at 98 ± 15 µM, the kcat amounted to 3.36 s⁻¹ and the kcat/Km was determined as 35000 M⁻¹ s⁻¹. In series [3], the Km was 22 ± 2 µM, the kcat came out at 4.25 ± 0.16 s⁻¹ and the kcat/Km came to 195000 ± 8000 M⁻¹ s⁻¹. Further, in series [2], the Michaelis constant (Km) worked out at 3.9 ± 0.1 µM, the kcat turned out to be 0.99 ± 0.04 s⁻¹ and the kcat/Km amounted to 256000 ± 5000 M⁻¹ s⁻¹.

B3: SoBADH (Spinacia oleracea; A441T) (protein)
chain: MAFPIPARQLFIDGEWREPIKKNRIPVINPSTEEIIGDIPAATAEDVEVAVVAARRAFRRNNWSATSGAHRATYLRAIAAKITEKKDHFVKLETIDSGKPFDEAVLDIDDVASCFEYFAGQAEALDGKQKAPVTLPMERFKSHVLRQPLGVVGLISPWNYPLLMATWKIAPALAAGCTAVLKPSELASVTCLEFGEVCNEVGLPPGVLNILTGLGPDAGAPLVSHPDVDKIAFTGSSATGSKVMASAAQLVKPVTLELGGKSPIVVFEDVDIDKVVEWTIFGCFWTNGQICSATSRLLVHESIAAEFVDKLVKWTKNIKISDPFEEGCRLGPVISKGQYDKIMKFISTAKSEGATILYGGSRPEHLKKGYYIEPTIVTDISTSMQIWKEEVFGPVLCVKTFSSEDEAIALANDTEYGLAAAVFSNDLERCERITKALEVGTVWVNCSQPCFVQAPWGGIKRSGFGRELGEWGIQNYLNIKQVTQDISDEPWGWYKSP
notes: native homodimer
With B3, in series [1], the Km was 180 ± 6 µM, the kcat came out at 2.64 s⁻¹ and the kcat/Km was 15000 M⁻¹ s⁻¹. In addition, in series [2], the Km amounted to 4.6 ± 0.5 µM, the kcat amounted to 1.5 ± 0.12 s⁻¹ and the kcat/Km is 326000 ± 13000 M⁻¹ s⁻¹.

B4: SoBADH (Spinacia oleracea; A441S) (protein)
chain: MAFPIPARQLFIDGEWREPIKKNRIPVINPSTEEIIGDIPAATAEDVEVAVVAARRAFRRNNWSATSGAHRATYLRAIAAKITEKKDHFVKLETIDSGKPFDEAVLDIDDVASCFEYFAGQAEALDGKQKAPVTLPMERFKSHVLRQPLGVVGLISPWNYPLLMATWKIAPALAAGCTAVLKPSELASVTCLEFGEVCNEVGLPPGVLNILTGLGPDAGAPLVSHPDVDKIAFTGSSATGSKVMASAAQLVKPVTLELGGKSPIVVFEDVDIDKVVEWTIFGCFWTNGQICSATSRLLVHESIAAEFVDKLVKWTKNIKISDPFEEGCRLGPVISKGQYDKIMKFISTAKSEGATILYGGSRPEHLKKGYYIEPTIVTDISTSMQIWKEEVFGPVLCVKTFSSEDEAIALANDTEYGLAAAVFSNDLERCERITKALEVGSVWVNCSQPCFVQAPWGGIKRSGFGRELGEWGIQNYLNIKQVTQDISDEPWGWYKSP
notes: native homodimer
Take B4: the Km in series [1] is 119 ± 8 µM; in series [3] it was 29 ± 3 µM; in series [2], 2.0 ± 0.5 µM. The kcat in series [1] is 3.29 s⁻¹; in series [3] it was 3.27 ± 0.18 s⁻¹; in series [2], 1.12 s⁻¹. The kcat/Km in series [1] is 28000 M⁻¹ s⁻¹; in series [3], 114000 ± 20000 M⁻¹ s⁻¹; in series [2], 550000 ± 142000 M⁻¹ s⁻¹.

B5: SoBADH (Spinacia oleracea; A441V) (protein)
chain: MAFPIPARQLFIDGEWREPIKKNRIPVINPSTEEIIGDIPAATAEDVEVAVVAARRAFRRNNWSATSGAHRATYLRAIAAKITEKKDHFVKLETIDSGKPFDEAVLDIDDVASCFEYFAGQAEALDGKQKAPVTLPMERFKSHVLRQPLGVVGLISPWNYPLLMATWKIAPALAAGCTAVLKPSELASVTCLEFGEVCNEVGLPPGVLNILTGLGPDAGAPLVSHPDVDKIAFTGSSATGSKVMASAAQLVKPVTLELGGKSPIVVFEDVDIDKVVEWTIFGCFWTNGQICSATSRLLVHESIAAEFVDKLVKWTKNIKISDPFEEGCRLGPVISKGQYDKIMKFISTAKSEGATILYGGSRPEHLKKGYYIEPTIVTDISTSMQIWKEEVFGPVLCVKTFSSEDEAIALANDTEYGLAAAVFSNDLERCERITKALEVGVVWVNCSQPCFVQAPWGGIKRSGFGRELGEWGIQNYLNIKQVTQDISDEPWGWYKSP
notes: native homodimer
Consider B5, for which, in series [1], the Km was 512 ± 79 µM, the kcat was 0.54 s⁻¹ and the kcat/Km came to 1100 M⁻¹ s⁻¹. Besides, in series [3], the Km worked out at 6.4 ± 0.5 µM, the kcat worked out at 0.51 s⁻¹ and the kcat/Km worked out at 80000 ± 5000 M⁻¹ s⁻¹. Further, in series [2], the Km was 1.1 ± 0.3 µM, the kcat turned out to be 0.52 ± 0.1 s⁻¹ and the kcat/Km was 473000 ± 216000 M⁻¹ s⁻¹.

Source of the values: PMC4046141, “Exploring the evolutionary route of the acquisition of betaine aldehyde dehydrogenase activity by plant ALDH10 enzymes: implications for the synthesis of the osmoprotectant glycine betaine” (BMC Plant Biology, 2014).
